Results taken from patent US12570744 (AstraZeneca / MedImmune, dated 2026).
Residue numbers refer to the chain shown, from its start.

How the values were obtained:
[1] = target: T1, human TIGIT expressed on the cell surface (human, UniProt Q495A1 22-244); experiment: flow cytometry on TIGIT^+ Jurkat cells, mean of two experiments
T1 construct: whole, on cells; also called Jurkat PD-1^-TIGIT^+ cells; TIGIT^+ Jurkat cells
T1 sequence (looked up): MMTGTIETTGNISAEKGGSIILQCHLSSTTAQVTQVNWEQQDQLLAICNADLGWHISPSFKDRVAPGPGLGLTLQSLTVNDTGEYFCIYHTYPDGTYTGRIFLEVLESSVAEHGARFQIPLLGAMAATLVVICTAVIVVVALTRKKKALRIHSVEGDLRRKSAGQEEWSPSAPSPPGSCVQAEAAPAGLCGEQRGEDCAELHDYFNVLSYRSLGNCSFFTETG

[2] = target: T1, human TIGIT expressed on the cell …; experiment: cell-based or functional assay
[3] = target: T1, human TIGIT expressed on the cell …; experiment: flow cytometry on TIGIT^+ Jurkat cells, Experiment #1
[4] = target: T1, human TIGIT expressed on the cell …; experiment: flow cytometry on TIGIT^+ Jurkat cells (the reference itself)
[5] = target: T1, human TIGIT expressed on the cell …; experiment: flow cytometry on TIGIT^+ Jurkat cells, Experiment #2
[6] = target: T1, human TIGIT expressed on the cell …; experiment: flow cytometry (MFI) on 293 cells overexpressing human TIGIT
[7] = target: T2, cynomolgus TIGIT overexpressed on 293 cells (cynomolgus, UniProt A0A7N9I9V4 89-312); experiment: flow cytometry (MFI) on 293 cells overexpressing cynomolgus TIGIT; Kd row of the table under the graph, the concentration axis is [nM]
T2 construct: whole, on cells

[8] = target: T1, human TIGIT expressed on the cell …; experiment: flow cytometry (MFI) on 293 cells overexpressing human TIGIT; Kd row of the table under the graph, the concentration axis is [nM]
[9] = target: T3, cyTIGIT (cynomolgus TIGIT, recombinant) (cynomolgus, UniProt A0A7N9I9V4 89-209); experiment: SPR (BIAcore T200), PD-1/TIGIT DuetMab sample, cyTIGIT as ligand
T3 construct: Ligand in the BIAcore assay; The construct is not described
Method: (§1) Binding experiments were carried out using a BIAcore T200 instrument (BIAcore).

[10] = target: T4, recombinant human TIGIT protein (human, UniProt Q495A1 22-141); experiment: SPR (BIAcore T200), PD-1/TIGIT DuetMab sample, huTIGIT as ligand
T4 construct: In the Octet assay it was used biotinylated on streptavidin sensors or in solution; Construct and tags are not described; also called huTIGIT; human TIGIT antigen
T4 sequence (looked up): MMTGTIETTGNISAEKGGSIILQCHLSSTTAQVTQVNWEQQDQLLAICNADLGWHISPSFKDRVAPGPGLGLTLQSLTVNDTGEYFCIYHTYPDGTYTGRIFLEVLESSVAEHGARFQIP
Method: as §1

[11] = target: T5, muTIGIT (mouse TIGIT, recombinant) (mouse (printed as 'mu'), UniProt P86176 29-148, limits assumed); experiment: SPR (BIAcore T200), PD-1/TIGIT DuetMab sample, muTIGIT as ligand
T5 construct: Ligand in the BIAcore assay; The construct is not described
T5 sequence (looked up): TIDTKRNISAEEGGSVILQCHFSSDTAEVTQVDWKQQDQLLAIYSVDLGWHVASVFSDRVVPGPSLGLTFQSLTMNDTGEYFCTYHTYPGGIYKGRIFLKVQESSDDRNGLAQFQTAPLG
Method: as §1

[12] = target: T6, human PD-1 expressed on the cell surface of engineered Jurkat cells (human, UniProt Q15116 25-288); experiment: flow cytometry on PD-1^+ Jurkat cells, Experiment #1
T6 construct: whole, on cells; also called Jurkat PD-1^+TIGIT^- cells; PD-1^+ Jurkat cells

[13] = target: T6, human PD-1 expressed on the cell …; experiment: flow cytometry on PD-1^+ Jurkat cells, Experiment #2
[14] = target: T6, human PD-1 expressed on the cell …; experiment: flow cytometry on PD-1^+ Jurkat cells, mean of two experiments
[15] = target: T6, human PD-1 expressed on the cell …; experiment: cell-based or functional assay
[16] = target: T6, human PD-1 expressed on the cell …; experiment: flow cytometry on PD-1^+ Jurkat cells (the reference itself)

T6 sequence (Q15116 25-288, change not shown): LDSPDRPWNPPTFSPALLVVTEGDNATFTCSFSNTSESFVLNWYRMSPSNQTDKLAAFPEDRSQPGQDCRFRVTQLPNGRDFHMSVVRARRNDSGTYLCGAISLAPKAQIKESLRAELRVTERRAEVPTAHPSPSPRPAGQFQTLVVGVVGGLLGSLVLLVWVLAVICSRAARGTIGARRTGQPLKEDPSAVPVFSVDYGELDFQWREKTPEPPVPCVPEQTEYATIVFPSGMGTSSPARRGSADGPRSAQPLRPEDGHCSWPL
T2 sequence (A0A7N9I9V4 entry or part of it): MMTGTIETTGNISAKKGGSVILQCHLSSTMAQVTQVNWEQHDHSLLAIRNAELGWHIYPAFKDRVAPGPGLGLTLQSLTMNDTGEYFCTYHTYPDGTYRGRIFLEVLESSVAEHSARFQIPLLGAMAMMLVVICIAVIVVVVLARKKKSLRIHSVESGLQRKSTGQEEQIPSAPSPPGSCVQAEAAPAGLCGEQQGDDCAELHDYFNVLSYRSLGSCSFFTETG
T3 sequence (A0A7N9I9V4 entry or part of it): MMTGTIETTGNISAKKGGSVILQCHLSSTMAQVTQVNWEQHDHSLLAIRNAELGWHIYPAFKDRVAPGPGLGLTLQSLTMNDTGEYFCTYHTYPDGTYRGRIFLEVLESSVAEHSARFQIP

B1: monospecific anti-TIGIT (VAR1) bivalent mAb (antibody, V domains shown)
VH: QVQLVESGGGVVQPGRSLRLSCAASGFTFSSYAMHWVRQAPGKGLEWVAVISYAGEVKYYADSVKGRFTISRDNSKNTLYLQMNSLRAEDTAVYYCARDPLPLHYYGMDVWGQGTTVTVSS
VL: QSVLTQPPSASGTPGQRVTISCSGSSSNIGRRPVNWYQQLPGTAPKLLIYSQNQRPSGVPDRFSGSQSGTSASLAISGLQSEDEADYFCAVWDDIGRVLQLGGGTQLTVL
notes: Bivalent mAb; also called anti-TIGIT mAb; bivalent anti-TIGIT antibody
- EC50 [1]: 0.119 nM
- EC50 (nM), NFAT-luciferase reporter, Experiment #1 [2]: 1.59 nM
- EC50 (nM), NFAT-luciferase reporter, Experiment #2 [2]: 2.85 nM
- Fold Change of Mean EC50 vs. Anti-TIGIT [2]: 1 fold
- Mean EC50 (nM), NFAT-luciferase reporter [2]: 2.22 nM
- EC50 [3]: 0.092 nM
- Fold Change vs. anti-TIGIT (mean EC50) [4]: 1 fold
- EC50 [5]: 0.147 nM

B2: VL GL + VH WT (VAR1 variant DuetMab) (bispecific antibody)
chain 1: EVQLVESGGGLVQPGGSLRLSCAASGFTFSDYGMHWVRQAPGKGLEWVAYISSGSYTIYSADSVKGRFTISRDNAKNSLYLQMNSLRAEDTAVYYCARRAPNSFYEYYFDYWGQGTTVTVSS
chain 2: QIVLTQSPATLSLSPGERATLSCSASSKHTNLYWSRHMYWYQQKPGQAPRLLIYLTSNRATGIPARFSGSGSGTDFTLTISSLEPEDFAVYYCQQWSSNPFTFGQGTKLEIK
chain 3: B1 VH with Q1E, S7T, V11L, V12I
chain 4: B1 VL with I29M
- EC50 (read off the curve) [6]: ~4 nM
- Kd [7]: 23.6 nM
- Kd [8]: 4.43 nM

B3: VL GL + VH GL (VAR1 variant DuetMab) (bispecific antibody)
chain 1: B2 chain 1
chain 2: B2 chain 2
chain 3: B1 VH
chain 4: B1 VL with I29M
- Kd [7]: 14.7 nM
- Kd [8]: 3.28 nM

B4: VL WT + VH GL (VAR1 variant DuetMab) (bispecific antibody, V domains shown)
VH 1: B2 chain 1
VL 1: B2 chain 2
VH 2: B1 VH
VL 2: B1 VL with V3A, P8R, T13N, I29M, L40I, A75T, D86E, T108A
- Kd [7]: 10.8 nM
- Kd [8]: 3.09 nM

B5: PD1-TIGIT duetMab LO115/P-VAR1(VHWT-VLWT) (bispecific antibody, V domains shown)
VH 1: B2 chain 1
VL 1: B2 chain 2
VH 2: B1 VH with Q1E, S7T, V11L, V12I
VL 2: B1 VL with V3A, P8R, T13N, I29M, L40I, A75T, D86E, T108A
notes: DuetMab format; also called parental VAR1; P-VAR1 w.t; DuetMab
- Kd [9]: 32.1 nM
- koff [9]: 0.0329 s⁻¹
- kon [9]: 1.03e+06 M⁻¹ s⁻¹
- EC50 (read off the curve) [6]: ~2 nM
- Kd [7]: 11.2 nM
- Kd [10]: 0.0099 nM
- koff [10]: 4.64e-05 s⁻¹
- kon [10]: 4.67e+06 M⁻¹ s⁻¹
- Kd [8]: 2.56 nM
- Kd [11]: 2.3 nM
- koff [11]: 0.00378 s⁻¹
- kon [11]: 1.66e+06 M⁻¹ s⁻¹

B6: monospecific anti-PD1 (LO115) bivalent mAb (antibody, V domains shown)
VH: B2 chain 1
VL: B2 chain 2
notes: Bivalent mAb; also called bivalent anti-PD-1 antibody; parental bivalent anti-PD-1 antibody
- EC50 [12]: 0.349 nM
- EC50 [13]: 0.985 nM
- EC50 [14]: 0.667 nM
- EC50 (nM), NFAT-luciferase reporter, Experiment #1 [15]: 1.93 nM
- EC50 (nM), NFAT-luciferase reporter, Experiment #2 [15]: 4.14 nM
- Fold Change of Mean EC50 vs. Anti-PD-1 [15]: 1 fold
- Mean EC50 (nM), NFAT-luciferase reporter [15]: 3.03 nM
- Fold Change vs. anti-PD-1 (mean EC50) [16]: 1 fold
